Results as given in patent US20060035265A1.

How the values were obtained:
[1] = biological target: FLAG-Zwt fusion protein; test: scintillation counting of antibody-coated beads after mixing with 35S-labelled transcription/translation mix
[2] = biological target: FLAG-ZIgA fusion protein; test: as above
[3] = biological target: FLAG-Zwt fusion protein; test: scintillation counting of beads after mixing with 35S-labelled transcription/translation mix; negative control without antibody
[4] = biological target: FLAG-ZIgA fusion protein; test: as above

Substance	Signal (cpm) [1] [cpm]	Signal (cpm) [2] [cpm]	Signal (cpm) [3] [cpm]	Signal (cpm) [4] [cpm]
biotinylated anti-FLAG BioM5 monoclonal antibody (Sigma prod no. F-2922)	35000	43700		
streptavidin on native streptavidin (SA) beads (M-280-SA Dynabeads) (from UniProt P22629 37-163)			4860	5960
